Measurements published in US20210009686A1 (published 2021).

Molecular target: CLDN18.2
Assay: FACS binding, KATO III cells

EC50: 0.67 µg/mL
B1: IMAB362 (antibody, V domains shown)
VH: QVQLQQPGAELVRPGASVKLSCKASGYTFTSYWINWVKQRPGQGLEWIGNIYPSDSYTNYNQKFKDKATLTVDKSSSTAYMQLSSPTSEDSAVYYCTRSWRGNSFDYWGQGTTLTVSS
VL: DIVMTQSPSSLTVTAGEKVTMSCKSSQSLLNSGNQKNYLTWYQQKPGQPPKLLIYWASTRESGVPDRFTGSGSGTDFTLTISSVQAEDLAVYYCQNDYSYPFTFGSGTKLEIKR
